# Source: doi:10.1101/2021.02.16.431366, “Functional basis for calmodulation of the TRPV5 calcium channel” (bioRxiv, 2021)
# Where no end group is shown, it is not given here.
# Legend:
# [1] = target: the molecule itself; experiment: single molecule photobleaching counting (smPB, TIRF microscopy); living HEK293 cells with low expression; bleaching steps of confined spots at the cell surface counted and fitted to a binomial distribution (eGFP folding probability 72%); CaM-eGFP counted in spots positive for mCherry-TRPV5, in presence and absence of extracellular Ca2+
# CaM agarose resin = target: T1, CaM agarose resin (UniProt P62157 1-149); experiment: pull-down; competition: 0-100 µM TRPV5 peptide added to the CaM agarose pull-down of GFP-TRPV5 lysate; TRPV5 band semi-quantified and fitted (non-linear sigmoidal) against log peptide concentration; Ca2+ concentration not stated; details: both partners purified
# T1 construct: calmodulin coupled to agarose; Immobilised on agarose by the supplier; source: bought: Sigma Aldrich (CaM agarose resin)
Binder,stoichiometry N [1],IC50 (CaM agarose resin)
"GFP-TRPV5 (natural protein, rabbit, UniProt Q9XSM3 1-730, looked up, TRPV5, rabbit, cloned into a pcDNA5 vector with an N-terminal GFP tag; also called eGFP-TRPV5; source: HEK293, transfected, in lysate; in living cells for single molecule photobleaching; not shown: GFP, N-terminal, kept) MGACPPKAKGPWAQLQKLLISWPVGEQDWEQYRDRVNMLQQERIRDSPLLQAAKENDLRLLKILLLNQSCDFQQRGAVGETALHVAALYDNLEAATLLMEAAPELAKEPALCEPFVGQTALHIAVMNQNLNLVRALLARGASVSARATGAAFRRSPHNLIYYGEHPLSFAACVGSEEIVRLLIEHGADIRAQDSLGNTVLHILILQPNKTFACQMYNLLLSYDEHSDHLQSLELVPNHQGLTPFKLAGVEGNTVMFQHLMQKRKHVQWTCGPLTSTLYDLTEIDSWGEELSFLELVVSSKKREARQILEQTPVKELVSFKWKKYGRPYFCVLASLYILYMICFTTCCIYRPLKLRDDNRTDPRDITILQQKLLQEAYVTHQDNIRLVGELVTVTGAVIILLLEIPDIFRVGASRYFGQTILGGPFHVIIITYASLVLLTMVMRLTNMNGEVVPLSFALVLGWCSVMYFARGFQMLGPFTIMIQKMIFGDLMRFCWLMAVVILGFASAFHITFQTEDPNNLGEFSDYPTALFSTFELFLTIIDGPANYSVDLPFMYCITYAAFAIIATLLMLNLFIAMMGDTHWRVAQERDELWRAQVVATTVMLERKMPRFLWPRSGICGYEYGLGDRWFLRVENHHDQNPLRVLRYVEAFKCSDKEDGQEQLSEKRPSTVESGMLSRASVAFQTPSLSRTTSQSSNSHRGWEILRRNTLGHLNLGLDLGEGDGEEVYHF",4,–
"{Biotin‑C6}-QSSNSHRGWEILRRNTLGHL (TRPV5 distal C-terminal helix; the limits are counted from W702, the residue changed in the printed W702A peptide; also called distal peptide; distal TRPV5 peptide; source: synthetic peptide, bought: EMC microcollections GmbH) [TRPV5 distal helix peptide]",–,5.2 µM
